How the values were obtained:
[1] = molecular target: human plasma kallikrein (PKal) (human), P03952; test: enzyme inhibition assay: rate (F/s) of substrate peptide cleavage by PKal against [Fab] (nM), fitted to the Morrison equation; apparent Ki (Ki,app); Table 3 prints 2.5 nM; details: remark: other sources report otherwise
[2] = molecular target: human plasma kallikrein (PKal) (human), P03952; test: Ki,app; Fab inhibition of PKal cleavage of a substrate peptide, Morrison fit; details: remark: other sources report otherwise

human plasma kallikrein (PKal) (human), P03952, sequence (P03952 20-638 limits assumed): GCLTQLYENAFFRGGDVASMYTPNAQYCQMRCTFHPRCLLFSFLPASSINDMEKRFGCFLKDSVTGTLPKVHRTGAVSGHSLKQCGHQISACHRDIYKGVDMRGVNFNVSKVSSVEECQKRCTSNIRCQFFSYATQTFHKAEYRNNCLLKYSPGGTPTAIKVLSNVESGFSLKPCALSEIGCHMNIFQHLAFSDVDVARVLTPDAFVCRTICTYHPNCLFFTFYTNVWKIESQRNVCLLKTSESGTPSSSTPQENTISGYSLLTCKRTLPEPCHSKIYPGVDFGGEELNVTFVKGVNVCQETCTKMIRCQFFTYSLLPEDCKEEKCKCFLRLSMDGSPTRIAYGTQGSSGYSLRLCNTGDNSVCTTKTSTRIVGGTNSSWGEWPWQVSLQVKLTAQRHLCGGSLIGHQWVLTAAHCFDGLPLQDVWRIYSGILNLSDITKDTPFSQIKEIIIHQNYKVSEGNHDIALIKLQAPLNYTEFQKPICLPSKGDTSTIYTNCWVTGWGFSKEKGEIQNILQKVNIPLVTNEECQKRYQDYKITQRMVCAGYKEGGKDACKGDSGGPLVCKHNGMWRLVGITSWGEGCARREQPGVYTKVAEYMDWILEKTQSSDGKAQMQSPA

B1: M0162-A04 (Fab, V domains shown)
VH: EVQLLESGGGLVQPGGSLRLSCAASGFTFSHYIMMWVRQAPGKGLEWVSGIYSSGGITVYADSVKGRFTISRDNSKNTLYLQMNSLRAEDTAVYYCAYRRTGIPRRDAFDIWGQGTMVTVSS
VL: DIQMTQSPSTLSASVGDRVTITCRASQSISSWLAWYQQKPGKAPNLLIYKASTLESGVPSRFSGSGSGTEFTLTISSLQPDDFATYYCQQYNTYWTFGQGTKVEIK
Ki [1]: 6.54 nM
Ki [2]: 2.5 nM
